How the values were obtained:
[1] = molecular target: wild-type His-p32 (mouse) (UniProt O35658); test: SEC
[2] = molecular target: mutant His-p32 (K89A/K93A) (mouse) (UniProt O35658); test: SEC
p32 (gC1qR) wild-type [3] = molecular target: T1, p32 (gC1qR) wild-type (Mus musculus, UniProt Q8R5L1 72-279); test: competition
T1 sequence: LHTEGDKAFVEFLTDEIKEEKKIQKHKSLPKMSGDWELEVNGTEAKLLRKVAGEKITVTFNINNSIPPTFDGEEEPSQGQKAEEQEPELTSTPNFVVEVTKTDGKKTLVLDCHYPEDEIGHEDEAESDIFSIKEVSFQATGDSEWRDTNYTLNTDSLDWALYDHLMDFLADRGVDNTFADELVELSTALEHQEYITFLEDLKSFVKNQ

p32 (gC1qR) wild-type [4] = molecular target: T1, p32 (gC1qR) wild-type; test: EMSA
p32 (gC1qR) wild-type [5] = molecular target: T1, p32 (gC1qR) wild-type; test: EMSA; remark: listed apart in the source
p32 (gC1qR) wild-type [6] = molecular target: T1, p32 (gC1qR) wild-type; test: competition; remark: listed apart in the source

**Q.** How did the stoichiometry N [1] turn out when “wild-type His-p32 (from UniProt O35658 71-278) (natural protein)” was run?
**A.** 3

**Q.** Which stoichiometry N [2] does the source give for “mutant His-p32 (K89A/K93A) (from UniProt O35658 71-278) (natural protein)” here?
**A.** 3

**Q.** Does AAAAAAAAAAAAAAAAAAAAAA (ssDNA) [22-mer poly(A) DNA] bind (p32 (gC1qR) wild-type [3])?
**A.** no binding

**Q.** Which Kd (p32 (gC1qR) wild-type [4]) does the source give for AAAAAAAAAAAAAAAAAAAAAA (ssRNA) [22-mer poly(A) RNA] here?
**A.** ~6 µM

**Q.** Does GUUUACGGUGCUA (ssRNA) [14-mer RNA (random)] bind (p32 (gC1qR) wild-type [5])?
**A.** binds

**Q.** Does GGGAGAAAAACAAAACAAAACAAAACUAGCACCGUAAAGC (ssRNA) [40-mer RNA (random)] bind (p32 (gC1qR) wild-type [6])?
**A.** binds

— publication PMC3479211
